B1: IpaH7.8 protein (residues 23–565) (enzyme)
chain: SNEHYLRILTEWEKNSSPGEERGIAFNRLSQCFQNQEAVLNLSDLNLTSLPELPKHISALIVENNKLTSLPKLPAFLKELNADNNRLSVIPELPESLTTLSVRSNQLENLPVLPNHLTSLFVENNRLYNLPALPEKLKFLHVYYNRLTTLPDLPDKLEILCAQRNNLVTFPQFSDRNNIRQKEYYFHFNQITTLPESFSQLDSSYRINISGNPLSTRVLQSLQRLTSSPDYHGPQIYFSMSDGQQNTLHRPLADAVTAWFPENKQSDVSQIWHAFEHEEHANTFSAFLDRLSDTVSARNTSGFREQVAAWLEKLSASAELRQQSFAVAADATESCEDRVALTWNNLRKTLLVHQASEGLFDNDTGALLSLGREMFRLEILEDIARDKVRTLHFVDEIEVYLAFQTMLAEKLQLSTAVKEMRFYGVSGVTANDLRTAEAMVRSREENEFTDWFSLWGPWHAVLKRTEADRWAQAEEQKYEMLENEYSQRVADRLKASGLSGDADAEREAGAQVMRETEQQIYRQLTDEVLALRLSENGSRLHHS
notes: IpaH7.8, type III secretion effector and E3 ubiquitin ligase of Shigella flexneri; residues 23-565; synthesized fragment; Limits 23-565 are stated for the SEC experiment; source: E. coli BL21 (DE3), purified (Ni-NTA, anion exchange, SEC); not shown: His, N-terminal, cleaved

Legend:
[1] = molecular target: B1; test: ITC; MicroCal PEAQ-ITC, 25 °C; IpaH7.8 proteins injected into the cell containing GSDMB or GSDMD proteins; 25 mM Tris-HCl pH 8.0, 150 mM NaCl unless otherwise stated (one titration of IpaH7.8 into GSDMB in a high salt buffer); conditions: both partners purified
GSDMB (residues 1-411) [2] = molecular target: T1, GSDMB (residues 1-411) (human, UniProt Q8TAX9-1 1-411); test: as above; conditions: both partners purified
T1 construct: residues 1-411; For the crystal the complex was obtained by co-transforming the GSDMB and IpaH7.8 plasmids; limits 1-411 are stated for the crystallised protein; also called gasdermin B; WT GSDMB; source: E. coli BL21 (DE3), purified (Ni-NTA, anion exchange, SEC); not shown: His, N-terminal, cleaved; MBP, N-terminal, cleaved
T1 sequence: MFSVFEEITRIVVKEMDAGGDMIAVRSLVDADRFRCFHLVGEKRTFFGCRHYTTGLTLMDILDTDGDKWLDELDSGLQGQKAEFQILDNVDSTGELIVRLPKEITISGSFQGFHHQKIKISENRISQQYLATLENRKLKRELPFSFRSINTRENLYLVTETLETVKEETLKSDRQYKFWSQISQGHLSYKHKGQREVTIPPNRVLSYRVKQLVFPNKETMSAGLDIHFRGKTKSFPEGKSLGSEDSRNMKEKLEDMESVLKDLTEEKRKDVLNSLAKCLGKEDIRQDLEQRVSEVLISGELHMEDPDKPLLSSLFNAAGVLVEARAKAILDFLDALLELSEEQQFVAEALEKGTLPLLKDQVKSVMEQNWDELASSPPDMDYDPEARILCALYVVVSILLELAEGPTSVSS

GSDMB (residues 1-411) [3] = molecular target: T2, GSDMB (residues 1-411) (human, UniProt Q8TAX9-1 1-411); test: ITC
T2 chain: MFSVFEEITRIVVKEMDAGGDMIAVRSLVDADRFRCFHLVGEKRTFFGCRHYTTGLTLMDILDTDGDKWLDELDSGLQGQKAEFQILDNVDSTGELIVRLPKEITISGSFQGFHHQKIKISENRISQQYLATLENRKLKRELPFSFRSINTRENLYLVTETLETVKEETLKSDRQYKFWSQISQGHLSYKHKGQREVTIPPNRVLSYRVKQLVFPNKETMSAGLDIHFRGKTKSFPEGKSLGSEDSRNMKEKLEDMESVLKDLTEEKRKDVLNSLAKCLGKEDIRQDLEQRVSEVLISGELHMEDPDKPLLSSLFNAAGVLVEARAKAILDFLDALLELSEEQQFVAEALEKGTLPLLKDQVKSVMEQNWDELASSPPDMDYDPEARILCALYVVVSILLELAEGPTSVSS

GSDMB (residues 1-411) [4] = molecular target: T2, GSDMB (residues 1-411); test: ITC; 500 mM NaCl

| Binder | binding result [1] | binding affinity in a high salt buffer against that in the standard buffer (GSDMB (residues 1-411) [2]) [fold] | Kd (GSDMB (residues 1-411) [3]) [nM] | Kd (GSDMB (residues 1-411) [4]) [nM] |
| --- | --- | --- | --- | --- |
| human GSDMD (natural protein, also called hGSDMD; WT hGSDMD; source: E. coli BL21 (DE3), purified (same protocol as GSDMB); not shown: His, N-terminal, cleaved; MBP, N-terminal, cleaved) MGSAFERVVRRVVQELDHGGEFIPVTSLQSSTGFQPYCLVVRKPSSSWFWKPRYKCVNLSIKDILEPDAAEPDVQRGRSFHFYDAMDGQIQGSVELAAPGQAKIAGGAAVSDSSSTSMNVYSLSVDPNTWQTLLHERHLRQPEHKVLQQLRSRGDNVYVVTEVLQTQKEVEVTRTHKREGSGRFSLPGATCLQGEGQGHLSQKKTVTIPSGSTLAFRVAQLVIDSDLDVLLFPDKKQRTFQPPATGHKRSTSEGAWPQLPSGLSMMRCLHNFLTDGVPAEGAFTEDFQGLRAEVETISKELELLDRELCQLLLEGLEGVLRDQLALRALEEALEQGQSLGPVEPLDGPAGAVLECLVLSSGMLVPELAIPVVYLLGALTMLSETQHKLLAEALESQTLLGPLELVGSLLEQSAPWQERSTMSLPPGLLGNSWGEGAPAWVLLDECGLELGEDTPHVCWEPQAQGRMCALYASLALLSGLSQEPH | binds | – | – | – |
| hGSDMD S124R (natural protein, human, UniProt P57764 1-484, looked up, GSDMD, human, isoform 1 of UniProtKB P57764; construct as m34; also called hGSDMD bearing the S124R mutation; source: E. coli BL21 (DE3), purified (same protocol as GSDMB); not shown: His, N-terminal, cleaved; MBP, N-terminal, cleaved) MGSAFERVVRRVVQELDHGGEFIPVTSLQSSTGFQPYCLVVRKPSSSWFWKPRYKCVNLSIKDILEPDAAEPDVQRGRSFHFYDAMDGQIQGSVELAAPGQAKIAGGAAVSDSSSTSMNVYSLRVDPNTWQTLLHERHLRQPEHKVLQQLRSRGDNVYVVTEVLQTQKEVEVTRTHKREGSGRFSLPGATCLQGEGQGHLSQKKTVTIPSGSTLAFRVAQLVIDSDLDVLLFPDKKQRTFQPPATGHKRSTSEGAWPQLPSGLSMMRCLHNFLTDGVPAEGAFTEDFQGLRAEVETISKELELLDRELCQLLLEGLEGVLRDQLALRALEEALEQGQSLGPVEPLDGPAGAVLECLVLSSGMLVPELAIPVVYLLGALTMLSETQHKLLAEALESQTLLGPLELVGSLLEQSAPWQERSTMSLPPGLLGNSWGEGAPAWVLLDECGLELGEDTPHVCWEPQAQGRMCALYASLALLSGLSQEPH | binds | – | – | – |
| B1 | – | 0.5 | 94 | 163 |
| N-terminal LRR domain (residues 23–264) of IpaH7.8 (domain or fragment) SNEHYLRILTEWEKNSSPGEERGIAFNRLSQCFQNQEAVLNLSDLNLTSLPELPKHISALIVENNKLTSLPKLPAFLKELNADNNRLSVIPELPESLTTLSVRSNQLENLPVLPNHLTSLFVENNRLYNLPALPEKLKFLHVYYNRLTTLPDLPDKLEILCAQRNNLVTFPQFSDRNNIRQKEYYFHFNQITTLPESFSQLDSSYRINISGNPLSTRVLQSLQRLTSSPDYHGPQIYFSMSD | – | – | 90 | – |

Source: paper PMC9813358, “Insights into the GSDMB-mediated cellular lysis and its targeting by IpaH7.8” (Nature Communications, 2023)
